Among the data in publication PMC6344896, “HuR biological function involves RRM3-mediated dimerization and RNA binding by all three RRMs” are binding result and Kd values, retold here.

Data set [1] has as its target T1, HuR RRM3 (human, UniProt Q15717 243-326). The data set is described as follows: NMR; 1:0.25 and 1:1.25; ITC: 50 mM sodium phosphate pH 7.0, 200 mM NaCl, 2 mM beta-mercaptoethanol, 298 K; NMR: 20 mM sodium phosphate pH 7.0, 200 mM NaCl, 5 mM DTT, 1 mM EDTA, 298 K. The following applies: protein: recombinant; tags: untagged (His6-GST cleaved with TEV).
Data set [2] concerns the target T1, HuR RRM3. As to the kind of experiment: ITC; 400 uM RNA into 20 uM RRM3; ITC: 50 mM sodium phosphate pH 7.0, 200 mM NaCl, 2 mM beta-mercaptoethanol, 298 K; NMR: 20 mM sodium phosphate pH 7.0, 200 mM NaCl, 5 mM DTT, 1 mM EDTA, 298 K. The following applies: protein: recombinant; tags: untagged (His6-GST cleaved with TEV). In general terms: ITC needs no label: the signal is the heat of the interaction.

In data set [3] the target is T1, HuR RRM3. The data set is described as follows: ITC; n=0.8; ITC: 50 mM sodium phosphate pH 7.0, 200 mM NaCl, 2 mM beta-mercaptoethanol, 298 K; NMR: 20 mM sodium phosphate pH 7.0, 200 mM NaCl, 5 mM DTT, 1 mM EDTA, 298 K. The following applies: protein: recombinant; tags: untagged (His6-GST cleaved with TEV).
Data set [4] addresses HuR RRM3 F247A/Y249A (human, UniProt Q15717 243-326, F247A;Y249A). The data set is described as follows: ITC; ITC: 50 mM sodium phosphate pH 7.0, 200 mM NaCl, 2 mM beta-mercaptoethanol, 298 K; NMR: 20 mM sodium phosphate pH 7.0, 200 mM NaCl, 5 mM DTT, 1 mM EDTA, 298 K. The settings on record: protein: recombinant; tags: untagged (His6-GST cleaved).
Data set [5] deals with HuR RRM3 F279A (human, UniProt Q15717 243-326, F279A). The data set is described as follows: ITC; n=0.6; ITC: 50 mM sodium phosphate pH 7.0, 200 mM NaCl, 2 mM beta-mercaptoethanol, 298 K; NMR: 20 mM sodium phosphate pH 7.0, 200 mM NaCl, 5 mM DTT, 1 mM EDTA, 298 K. The following applies: protein: recombinant; tags: untagged (His6-GST cleaved).
HuR RRM3 F279A, sequence (Q15717 243-326 F279A): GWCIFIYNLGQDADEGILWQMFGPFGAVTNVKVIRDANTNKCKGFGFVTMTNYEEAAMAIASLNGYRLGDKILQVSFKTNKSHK
The target in data set [6] is T1, HuR RRM3. As to the kind of experiment: ITC; 400 uM RNA into 20 uM RRM3; n=0.6; ITC: 50 mM sodium phosphate pH 7.0, 200 mM NaCl, 2 mM beta-mercaptoethanol, 298 K; NMR: 20 mM sodium phosphate pH 7.0, 200 mM NaCl, 5 mM DTT, 1 mM EDTA, 298 K. The following applies: protein: recombinant; tags: untagged (His6-GST cleaved with TEV).
In data set [7] the target is T1, HuR RRM3. The data set is described as follows: ITC; n=1.1; ITC: 50 mM sodium phosphate pH 7.0, 200 mM NaCl, 2 mM beta-mercaptoethanol, 298 K; NMR: 20 mM sodium phosphate pH 7.0, 200 mM NaCl, 5 mM DTT, 1 mM EDTA, 298 K. The following applies: protein: recombinant; tags: untagged (His6-GST cleaved with TEV).
Data set [8] concerns the target HuR WT (human, UniProt Q15717 1-326). The data set is described as follows: ITC; n=0.7; ITC: 50 mM sodium phosphate pH 7.0, 200 mM NaCl, 2 mM beta-mercaptoethanol, 298 K; NMR: 20 mM sodium phosphate pH 7.0, 200 mM NaCl, 5 mM DTT, 1 mM EDTA, 298 K. The settings on record: protein: recombinant; tags: untagged (His6-MBP cleaved).
Data set [9] deals with HuR F287A/F289A (human, UniProt Q15717 1-326, F287A;F289A). Described as above. The settings on record: protein: recombinant; tags: untagged (tag cleaved).
HuR F287A/F289A, sequence (Q15717 whole entry F287A/F289A): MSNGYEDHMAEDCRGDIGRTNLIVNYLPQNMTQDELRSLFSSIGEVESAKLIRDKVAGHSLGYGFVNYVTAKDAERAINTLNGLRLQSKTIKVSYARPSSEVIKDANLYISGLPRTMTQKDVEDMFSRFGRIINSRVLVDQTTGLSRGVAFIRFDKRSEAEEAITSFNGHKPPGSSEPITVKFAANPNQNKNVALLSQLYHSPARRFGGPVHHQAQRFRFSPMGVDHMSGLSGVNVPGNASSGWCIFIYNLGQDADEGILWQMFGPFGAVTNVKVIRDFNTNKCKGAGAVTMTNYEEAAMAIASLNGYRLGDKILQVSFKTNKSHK
The target of data set [10] is HuR F247A/Y249A (human, UniProt Q15717 1-326, F247A;Y249A). As to the kind of experiment: ITC; n=0.8; ITC: 50 mM sodium phosphate pH 7.0, 200 mM NaCl, 2 mM beta-mercaptoethanol, 298 K; NMR: 20 mM sodium phosphate pH 7.0, 200 mM NaCl, 5 mM DTT, 1 mM EDTA, 298 K. The settings on record: protein: recombinant; tags: untagged (tag cleaved).
HuR F247A/Y249A, sequence (Q15717 whole entry F247A/Y249A): as the sequence (Q15717 whole entry F287A/F289A) above, with F247A, Y249A, A287F, A289F counted along it
Data set [11] addresses HuR W261E (human, UniProt Q15717 1-326, W261E). As to the kind of experiment: ITC; n=0.9; ITC: 50 mM sodium phosphate pH 7.0, 200 mM NaCl, 2 mM beta-mercaptoethanol, 298 K; NMR: 20 mM sodium phosphate pH 7.0, 200 mM NaCl, 5 mM DTT, 1 mM EDTA, 298 K. The settings on record: protein: recombinant; tags: untagged (tag cleaved).
Data set [12] deals with HuR GGS (human, UniProt Q15717 1-185+=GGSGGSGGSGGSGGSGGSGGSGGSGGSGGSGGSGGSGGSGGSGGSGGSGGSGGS+240-326, internal_change). The description is as above. The following applies: protein: recombinant; tags: pETM11 His6, cleaved.
HuR GGS, sequence (Q15717 other isoform, or with tags, fused parts or gaps): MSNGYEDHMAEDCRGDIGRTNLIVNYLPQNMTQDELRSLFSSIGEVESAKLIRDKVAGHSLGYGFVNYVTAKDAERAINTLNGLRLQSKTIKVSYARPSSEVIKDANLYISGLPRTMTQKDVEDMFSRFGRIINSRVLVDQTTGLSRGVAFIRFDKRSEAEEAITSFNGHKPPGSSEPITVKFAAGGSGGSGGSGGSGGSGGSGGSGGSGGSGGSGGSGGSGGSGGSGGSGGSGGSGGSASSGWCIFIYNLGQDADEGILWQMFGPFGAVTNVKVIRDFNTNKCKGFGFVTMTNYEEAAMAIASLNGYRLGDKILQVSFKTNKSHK
Data set [13] deals with HuR F279A (human, UniProt Q15717 1-326, F279A). The data set is described as follows: ITC; n=1.0; ITC: 50 mM sodium phosphate pH 7.0, 200 mM NaCl, 2 mM beta-mercaptoethanol, 298 K; NMR: 20 mM sodium phosphate pH 7.0, 200 mM NaCl, 5 mM DTT, 1 mM EDTA, 298 K. The settings on record: protein: recombinant; tags: untagged (tag cleaved).
HuR F279A, sequence (Q15717 whole entry F279A): as the sequence (Q15717 whole entry F287A/F289A) above, with F279A, A287F, A289F counted along it
The target in data set [14] is T1, HuR RRM3. The data set is described as follows: ITC; ITC: 50 mM sodium phosphate pH 7.0, 200 mM NaCl, 2 mM beta-mercaptoethanol, 298 K; NMR: 20 mM sodium phosphate pH 7.0, 200 mM NaCl, 5 mM DTT, 1 mM EDTA, 298 K. The following applies: protein: recombinant; tags: untagged (His6-GST cleaved with TEV).
For data set [15], the target named is T1, HuR RRM3. As to the kind of experiment: NMR; changes comparable with U6; ITC: 50 mM sodium phosphate pH 7.0, 200 mM NaCl, 2 mM beta-mercaptoethanol, 298 K; NMR: 20 mM sodium phosphate pH 7.0, 200 mM NaCl, 5 mM DTT, 1 mM EDTA, 298 K. The following applies: protein: recombinant; tags: untagged (His6-GST cleaved with TEV).

T1 sequence (Q15717 243-326): as the sequence (Q15717 243-326 F279A) above, with A37F counted along it
HuR W261E, sequence (Q15717 whole entry W261E): as the sequence (Q15717 whole entry F287A/F289A) above, with W261E, A287F, A289F counted along it
HuR WT, sequence (Q15717 whole entry): as the sequence (Q15717 whole entry F287A/F289A) above, with A287F, A289F counted along it
HuR RRM3 F247A/Y249A, sequence (Q15717 243-326 F247A/Y249A): as the sequence (Q15717 243-326 F279A) above, with F5A, Y7A, A37F counted along it

As for GAGCAC (ssRNA) [GC control], the binding result in data set [1] is on record as “no binding”.
Take UUUUU (ssRNA) [U5]: the Kd (usually the concentration at which binding is half-saturated) in [2] was found to be 34 µM.
For UUUAUU (ssRNA) [AU6], the Kd in data set [3] came to 47 ± 3.6 µM.
For the molecule UUUUUU (ssRNA) [U6], the binding result in data set [4] is “no binding”. Further, the dissociation constant (Kd) is 44.6 ± 3.5 µM in data set [5], 19.3 ± 0.3 µM in data set [3] and 15.8 ± 1.5 µM in data set [6].
Turning to UUUGUU (ssRNA) [GU6], the Kd in data set [7] worked out at 100 ± 18.2 µM.
As to AUUUUUAUUUUAUUUUU (ssRNA) [AU17], the Kd was 0.04 ± 0.0082 µM in data set [8]; 0.194 ± 0.0215 µM in [9]; 0.351 ± 0.0199 µM in data set [10]; 0.041 ± 0.0048 µM in data set [11]; 0.0336 ± 0.0027 µM in data set [12]; 0.0288 ± 0.0044 µM in [13].
For UAUUUA (ssRNA) [AU6tnf], the Kd in data set [14] stood at 156 ± 32.8 µM.
For UUUUUUUUU (ssRNA) [U9], the binding result in [15] is “binds”.
